Target: human ST receptor protein (human) (UniProt P25092)
Experiment: receptor binding on colorectal tumor samples (local and metastasized); method and ligand not described

Chain of UniProt P25092 (P25092 other isoform, or with tags, fused parts or gaps limits assumed): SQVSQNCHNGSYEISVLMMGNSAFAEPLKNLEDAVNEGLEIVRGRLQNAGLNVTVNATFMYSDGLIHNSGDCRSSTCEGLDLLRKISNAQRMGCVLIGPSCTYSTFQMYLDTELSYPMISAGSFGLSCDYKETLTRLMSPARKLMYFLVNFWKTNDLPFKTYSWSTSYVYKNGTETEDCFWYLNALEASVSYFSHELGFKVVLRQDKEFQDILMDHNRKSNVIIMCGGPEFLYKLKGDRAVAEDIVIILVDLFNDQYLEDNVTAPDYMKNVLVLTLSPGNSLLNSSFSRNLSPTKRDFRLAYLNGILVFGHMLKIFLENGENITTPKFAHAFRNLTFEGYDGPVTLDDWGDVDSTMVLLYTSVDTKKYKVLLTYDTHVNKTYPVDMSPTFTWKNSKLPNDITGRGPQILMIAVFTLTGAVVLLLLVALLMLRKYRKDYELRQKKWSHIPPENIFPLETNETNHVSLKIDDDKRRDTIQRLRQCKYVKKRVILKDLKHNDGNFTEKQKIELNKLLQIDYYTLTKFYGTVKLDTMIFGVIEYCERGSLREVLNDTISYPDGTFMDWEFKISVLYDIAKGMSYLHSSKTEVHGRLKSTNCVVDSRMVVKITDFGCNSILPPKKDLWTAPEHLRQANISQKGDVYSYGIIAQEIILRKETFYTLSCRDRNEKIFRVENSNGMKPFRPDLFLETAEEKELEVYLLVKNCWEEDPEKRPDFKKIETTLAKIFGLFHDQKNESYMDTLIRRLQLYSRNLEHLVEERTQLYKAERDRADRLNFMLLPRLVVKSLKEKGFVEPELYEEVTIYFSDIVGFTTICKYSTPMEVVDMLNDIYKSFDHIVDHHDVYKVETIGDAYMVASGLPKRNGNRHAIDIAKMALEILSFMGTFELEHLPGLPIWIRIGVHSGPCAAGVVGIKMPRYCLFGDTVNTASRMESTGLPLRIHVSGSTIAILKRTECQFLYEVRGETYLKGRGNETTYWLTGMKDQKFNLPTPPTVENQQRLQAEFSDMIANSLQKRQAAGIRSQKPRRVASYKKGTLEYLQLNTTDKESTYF

Substance: heat-stable toxin (ST) (peptide)
- affinity: < 1e-07

Source: patent US6602659
